Measurements: article PMC8022333 (The FEBS journal, 2018)

Target: the molecule itself
Assay: crystal structure

B1: vimentin coil 1B (residues 153–238) (domain or fragment)
chain: not shown
stoichiometry N: 8
